Residue numbers refer to the chain shown, from its start.
Key:
[1] = target: T1, Human FGFR4 ECD (human, UniProt P22455 22-369); experiment: SPR (Biacore), assay conditions similar to those for 12425
T1 construct: whole entry is the construct; also called FGFR4 D1-D3 construct

[2] = target: T2, FGFR2 D2-D3 Construct (Human); experiment: HDx-MS: deuterium uptake of FGFR2 D2-D3 peptides with mAb against control without mAb [A), D00032 FIG. 19 (B]
T2 construct: also called E. coli derived FGFR2 D2-D3 protein
T2 chain: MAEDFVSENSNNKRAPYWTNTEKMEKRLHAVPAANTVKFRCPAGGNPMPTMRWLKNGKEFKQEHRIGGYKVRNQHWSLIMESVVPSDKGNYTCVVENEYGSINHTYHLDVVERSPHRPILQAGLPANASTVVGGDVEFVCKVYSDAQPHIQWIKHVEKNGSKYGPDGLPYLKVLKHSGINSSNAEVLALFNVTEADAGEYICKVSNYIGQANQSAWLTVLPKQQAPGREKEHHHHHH

[3] = target: T1, Human FGFR4 ECD; experiment: SET or Biacore, IgG
[4] = target: T1, Human FGFR4 ECD; experiment: SPR (Biacore), antibody captured, FGFR ECD as analyte
Procedure: The immobilization level and analyte interactions were measured by response unit (RU).
Subsequently, 0.078-100 nM of FGFR receptors, diluted in a 2-fold series, were injected at a flow rate of 80 μl/min for 7 min over both reference and test flow cells. Dissociation of the binding was followed for 10 min using HBS-EP⁺ supplemented with 0.5 mg/ml of BSA and 10 μg/ml heparin as running buffer. After each injection cycle, the chip surface was regenerated with 10 mM glycine, pH 2.0 at 60 μl/min for 70 s.

B1: mAb 20562 (antibody, human IgG1, kappa, V domains shown)
VH: EVQLLESGGGLVQPGGSLRLSCAASGFTFSDYAMSWVRQAPGKGLEWVSVIEGDASYTHYADSVRGRFTISRDNSKNTLYLQMNSLRAEDTAVYYCARERTYSSAFDYWGQGTLVTVSS
VL: DIQMTQSPSSLSASVGDRVTITCRASQDISSDLNWYQQKPGKAPKLLIYDASNLQSGVPSRFSGSGSGTDFTLTISSLQPEDFATYYCQQHYSPSHTFGQGTKVEIKR
[1]
  Kd: 3.3 nM

B2: mAb 20811 (antibody, human IgG1, kappa, V domains shown)
VH: B1 VH with E1Q, V50T, A55S, S56N, T58I, H59E, R65K
VL: B1 VL with Q89H, H91W, P94T, S95L, H96Y
[2]
  binding result: binds
[3]
  Kd: 0.075 nM

B3: mAb 12422 (antibody, human IgG1, kappa, V domains shown)
VH: QVQLVQSGAEVKKPGSSVKVSCKASGGTFSSYAISWVRQAPGQGLEWMGYISPYMGETHYAQKFQGRVTITADESTSTAYMELSSLRSEDTAVYYCARESYEYFDIWGQGTLVTVSS
VL: DIQMTQSPSSLSASVGDRVTITCRASQSISNDLAWYQQKPGKAPKLLIYATSILQSGVPSRFSGSGSGTDFTLTISSLQPEDFATYYCLQYYDYSYTFGQGTKVEIKR
[4]
  Kd: 0.95 nM

B4: mAb 12439 (antibody, human IgG1, kappa, V domains shown)
VH: QVQLVQSGAEVKKPGASVKVSCKASGYTFTSYDISWVRQAPGQGLEWMGWINPYNGGTNYAQKFQGRVTMTRDTSISTAYMELSRLRSEDTAVYYCAREGSGMIVYPGWSYAFDYWGQGTLVTVSS
VL: B1 VL with S31N, N34G, D50A, N53S, S93H, P94T, S95P, H96N
[4]
  Kd: 4.3 nM
